Experimental data as given in publication PMC7073074 (2020).

B1: FLAG-tagged coronin A lacking the coiled coil (protein)
chain: MSKVVRSSKYRHVFAAQPKKEECYQNLKVTKSAWDSNYVAANTRYFGVIWDAAGGGSFAVIPHEASGKTTSVPLFNGHKSAVLDIAFHPFNENLVGSVSEDCNICIWGIPEGGLTDSISTPLQTLSGHKRKVGTISFNPVADNVAVTSSGDFLVKTWDVEQGKNLTTVEGHSDMITSCEWNHNGSQIVTTCKDKKARVFDPRTNSIVNEVVCHQGVKNSRAIFAKDKVITVGFSKTSERELHIYDPRAFTTPLSAQVVDSASGLLMPFYDADNSILYLAGKGDGNIRYYELVDESPYIHFLSEFKSATPQRGLCFLPKRCLNTSECEIARGLKVTPFTVEPISFRVPRKSDIFQDDIYPDTYAGEPSLTAEQWVSGTNAEPKTVSLAGGFVKKASAVEFKPVVQVQEGPKN
B2: FLAG-tagged coronin A (protein)
chain: MSKVVRSSKYRHVFAAQPKKEECYQNLKVTKSAWDSNYVAANTRYFGVIWDAAGGGSFAVIPHEASGKTTSVPLFNGHKSAVLDIAFHPFNENLVGSVSEDCNICIWGIPEGGLTDSISTPLQTLSGHKRKVGTISFNPVADNVAVTSSGDFLVKTWDVEQGKNLTTVEGHSDMITSCEWNHNGSQIVTTCKDKKARVFDPRTNSIVNEVVCHQGVKNSRAIFAKDKVITVGFSKTSERELHIYDPRAFTTPLSAQVVDSASGLLMPFYDADNSILYLAGKGDGNIRYYELVDESPYIHFLSEFKSATPQRGLCFLPKRCLNTSECEIARGLKVTPFTVEPISFRVPRKSDIFQDDIYPDTYAGEPSLTAEQWVSGTNAEPKTVSLAGGFVKKASAVEFKPVVQVQEGPKNEKELREEYEKLKIRVAYLESEIVKKDAKIKELTN

Key:
[1] = target: T1, rabbit muscle F-actin (Oryctolagus cuniculus (Rabbit), UniProt P68135); assay: F-actin co-sedimentation, Coomassie SDS-PAGE
[2] = target: T1, rabbit muscle F-actin; assay: F-actin co-sedimentation, Coomassie SDS-PAGE (apparent Kd given only as 8.9 µg, CI 5-20 µg); low ionic strength: co-pellets at 50 mM NaCl but not at 100 or 150 mM NaCl; polymerised (F-)actin

| Binder | binding result [1] | binding result [2] |
| --- | --- | --- |
| B1 | no binding |  |
| B2 |  | binds |
